Experiments:
[1] = target: MOR FRET sensor (rat MOR with sYFP2 inserted after G267, truncated after T370, mTurquoise2 at the C-terminus) (rat) (UniProt P33535)
[2] = target: MOR FRET sensor (rat MOR with sYFP2 inserted after G267, truncated after T370, mTurquoise2 at the C-terminus) (rat) (UniProt P33535); remark: listed apart in the source

T370 sequence (P33535 1-370): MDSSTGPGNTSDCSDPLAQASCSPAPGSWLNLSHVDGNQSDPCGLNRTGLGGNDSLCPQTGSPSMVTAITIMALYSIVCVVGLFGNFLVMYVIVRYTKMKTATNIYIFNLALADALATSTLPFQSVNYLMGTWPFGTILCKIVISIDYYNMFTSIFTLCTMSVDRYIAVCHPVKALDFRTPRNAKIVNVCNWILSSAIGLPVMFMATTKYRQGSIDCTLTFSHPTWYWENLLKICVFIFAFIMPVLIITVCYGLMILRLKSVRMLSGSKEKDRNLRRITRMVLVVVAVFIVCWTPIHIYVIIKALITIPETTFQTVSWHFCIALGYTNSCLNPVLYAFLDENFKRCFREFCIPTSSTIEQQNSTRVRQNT

Row | Substance | half-time of deactivation of the MOR FRET sensor after washout of 100 µM agonist (single-cell FRET) [1] | EC50 of the agonist-induced change of the FRET emission ratio of the MOR FRET conformation sensor (concentration-response, 96-well plate reader) [2] | on-rate Kon, calculated from the Koff of sensor deactivation and the EC50 (single-cell FRET, 100 µM agonist) [1]
1 | Met-enkephalin (peptide) | < 10 s |  | 
2 | DAMGO (peptide) | < 10 s | 430 nM | 167000 M⁻¹ s⁻¹

From paper PMC11806106
